Assay results: patent US20230151106A1, “OFATUMUMAB FOR TREATING MS WHILE MAINTAINING SERUM IgG” (NOVARTIS AG, priority 2020, published 2023)
“Also recorded” adds a separate entry of the source. Read-outs that look alike come from different tables or passages of the source.

Key:
[1] = tested on: serum IgM; test: Serum IgM levels in ASCLEPIOS I/II (Pool C2); assay type: in vivo, human
Description: In the present application serum Ig levels can preferably be determined by immunoturbidimetry. Preferably a Roche cobas® Analyzer was used, especially module c of the cobas® analyser.
(§3) Serum samples were preferably kept at 2-8° C. before measurement.
ASCLEPIOS I and II are double-blind, double-dummy, active comparator-controlled, parallel-group, innovative, adaptive design, multicentre trials. Patients were randomised (1:1) to receive either ofatumumab 20 mg sc injections every 4 weeks (after an initial loading regimen of 20 mg sc doses on Days 1, 7 and 14) or teriflunomide 14 mg orally once daily, for up to 30 months.

[2] = molecular target: T1, CD20 receptor (Homo sapiens, UniProt P11836); test: B-cell binding studies, off-rate; conditions: in comparison to rituximab
T1 construct: endogenous in cells
T1 sequence (P11836 1-297): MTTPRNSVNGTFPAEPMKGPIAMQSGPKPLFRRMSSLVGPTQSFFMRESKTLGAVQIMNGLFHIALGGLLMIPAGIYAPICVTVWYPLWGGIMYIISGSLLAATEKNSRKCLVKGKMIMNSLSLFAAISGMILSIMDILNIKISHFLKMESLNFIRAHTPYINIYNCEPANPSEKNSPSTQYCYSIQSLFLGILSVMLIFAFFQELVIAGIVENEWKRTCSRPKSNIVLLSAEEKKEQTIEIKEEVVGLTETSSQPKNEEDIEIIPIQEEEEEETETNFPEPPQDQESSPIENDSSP

[3] = tested on: CD19+ B-cells; test: CD19+ B-cell depletion in ASCLEPIOS; assay type: in vivo, human
Description: ASCLEPIOS I and II are double-blind, double-dummy, active comparator-controlled, parallel-group, innovative, adaptive design, multicentre trials. Patients were randomised (1:1) to receive either ofatumumab 20 mg sc injections every 4 weeks (after an initial loading regimen of 20 mg sc doses on Days 1, 7 and 14) or teriflunomide 14 mg orally once daily, for up to 30 months. […] Patients aged 18-55 years with an Expanded Disability Status Scale (EDSS) score (according to Kurtzke, Neurology. 1983, Nov; 33(11): 1444-52) of 0-5.5 at screening who experienced ≥1 relapse in the past year or ≥2 relapses in the past 2 years or a positive gadolinium-enhancing (Gd+) MRI scan during the year before randomisation were included.

[4] = tested on: multiple sclerosis patients; test: Infections in relation to IgM/IgG levels <LLN vs >=LLN in ofatumumab MS studies
Description: (§4) Serum IgG/IgM levels were monitored at baseline, Week (W) 4, W12 and every 12 weeks, see FIG. 1.

[5] = tested on: MS patients; conditions: human, in vivo
[6] = tested on: IgG levels; test: Metanalysis of Example 1 versus Derfuss et al. (pooled OPERA), IgG levels; assay type: in vivo, human
Description: In a metanalysis, the results of Example 1 and the results obtained by Derfuss et al. were compared.

[7] = tested on: B cells; test: B-cell repletion after study treatment discontinuation (Pool C2, OMS115102); assay type: in vivo, human; conditions: study OMS115102, approximately 48 weeks post study
[8] = in vivo, sc, 20 mg
[9] = tested on: IgM; test: Long term study (Example 5), IgM levels; assay type: in vivo, human; conditions: OMB long-term group, FIGS. 16 and 17
Description: (§1) 2”, preferably version 13.0 dated 2018-11.
(§2) Patients were subjected to a long term treatment.

[10] = tested on: serum IgG; test: Serum IgG levels in ASCLEPIOS I/II (Pool C2)
Description: (§5) In the present application serum Ig levels can preferably be determined by immunoturbidimetry. Preferably a Roche cobas® Analyzer was used, especially module c of the cobas® analyser. In a preferred embodiment Ig levels can be determined by using a cobas® c 311 analyzer. It is further preferred that IgG measurements are carried out as described in the cobas® leaflet “IGG-2 Tina-quant IgG Gen. 2”, preferably version 11.0 dated 2016-02 and IgM measurements as described in the leaflet “IGM-2 Tina-quant IgM Gen. 2”, preferably version 13.0 dated 2018-11.
as §3
(§6) Patients were randomised (1:1) to receive either ofatumumab 20 mg sc injections every 4 weeks (after an initial loading regimen of 20 mg sc doses on Days 1, 7 and 14) or teriflunomide 14 mg orally once daily, for up to 30 months.
as §4

[11] = tested on: MS patients; conditions: cited from earlier work
[12] = tested on: multiple sclerosis patients; conditions: in vivo
Description: as §4

[13] = tested on: CD20 receptor on B-cells; test: Nonclinical ADCC activity comparison; assay type: cell-based; conditions: ofatumumab compared to ocrelizumab and rituximab
[14] = tested on: IgG; test: Long term study (Example 5), IgG levels; assay type: in vivo, human; conditions: OMB long-term group, FIG. 14
Description: as §1, §2

[15] = tested on: serum IgG; conditions: in vivo
Description: as §5, §3, §6, §4

[16] = tested on: COVID-19; conditions: for COVID-19 symptoms duration / Outcome: serious case
Description: Confirmed or suspected cases of COVID-19 infection in patients receiving ofatumumab in the open-label extension study ALITHIOS were reviewed (data cutoff: Dec. 21, 2020)
COVID-19 cases were classified as confirmed if SARS-CoV2 positive test results were available, or patient was reported to be diagnosed with COVID-19
Suspected cases of COVID-19 were classified as suspected if without a positive SARS-CoV2 test or definitive diagnosis
The following COVID-19 case characteristics were assessed:
*Serious criteria is based on the regulatory reporting definition established by ICH, for the purposes of regulatory reporting obligations, and consists of fatal, life-threatening, hospitalization and medically significant

[17] = tested on: MS patients; test: General safety in MS clinical trials with ofatumumab (neutrophils, PML, hepatitis B, malignancy, cytopenia); conditions: human, in vivo

## ofatumumab: recombinant human monoclonal immunoglobulin G1 (IgG1) antibody that binds to human CD20
[1]; MS studies
  IgM decline with treatment: some level of IgM decline but the majority of the patients remained above LLN
[1]; Week 96 completers, Pool C2
  change in mean IgM: -0.537 g/L
  decline in mean IgM: 38.8%
[1]; any time post baseline and at Week 96, FIG. 8
  proportion of patients with IgM levels below LLN and 10% below the LLN versus teriflunomide: higher proportion
[1]; any time post-baseline, FIG. 9
  patients with IgM levels on or above the LLN: 82-89%
[1]; baseline to Week 48, Pool C2
  change in mean IgM value: -0.420 g/L
  decrease in mean IgM value: 30.9%
[1]; over time, reference range 0.40-2.30 g/L
  mean serum IgM levels versus reference range: remained well within the reference ranges
[2]
  off-rate (dissociation rate of the antibody from the CD20 receptor): lower off-rate
[3]; Week 1
  patients with CD19+ B-cells below LLN: 77.0%
  patients with CD19+ B-cells below LLN, n/M: 338/439
[3]; Week 1, listed as OMB
  patients with CD19+ B-cells below LLN: (77.0) %
[3]; Week 2
  patients with CD19+ B-cells below LLN: 95.0%
  patients with CD19+ B-cells below LLN, n/M: 420/442
[3]; Week 2, listed as OMB
  patients with CD19+ B-cells below LLN: (95.0) %
[3]; Week 4
  patients with CD19+ B-cells below LLN: (97.8) %
  patients with CD19+ B-cells below LLN, n/M: 440/450
[3]; Week 12
  patients with CD19+ B-cells below LLN: 99.3%
  patients with CD19+ B-cells below LLN, n/M: 440/443
[3]; Week 12, listed as OMB
  patients with CD19+ B-cells below LLN: (99.3) %
[3]; Week 24
  patients with CD19+ B-cells below LLN: (98.4) %
  patients with CD19+ B-cells below LLN, n/M: 422/429
[3]; Week 36
  patients with CD19+ B-cells below LLN: (98.8) %
  patients with CD19+ B-cells below LLN, n/M: 415/420
[3]; Week 48
  patients with CD19+ B-cells below LLN: (98.3) %
  patients with CD19+ B-cells below LLN, n/M: 397/404
[3]; Week 60
  patients with CD19+ B-cells below LLN: (96.7) %
  patients with CD19+ B-cells below LLN, n/M: 385/398
[3]; Week 72
  patients with CD19+ B-cells below LLN: (98.2) %
  patients with CD19+ B-cells below LLN, n/M: 379/386
[3]; Week 84
  patients with CD19+ B-cells below LLN: (98.9) %
  patients with CD19+ B-cells below LLN, n/M: 260/263
[3]; Week 96
  patients with CD19+ B-cells below LLN: (99.4) %
  patients with CD19+ B-cells below LLN, n/M: 161/162
[3]; Week 108
  patients with CD19+ B-cells below LLN: (97.9) %
  patients with CD19+ B-cells below LLN, n/M: 93/95
[3]; Week 120
  patients with CD19+ B-cells below LLN: (100) %
  patients with CD19+ B-cells below LLN, n/M: 28/28
[3]; from Week 2 onwards
  median CD19+ B-cell count: zero
[3]; throughout the treatment period
  patients in whom CD19+ B-cell depletion was maintained: > 96%
[4]; IgG <LLN, N = 134
  Number of patients with at least 1 infection AE by Grade: Grade 4: 0 n
  infection AE by outcome: Fatal: 0 n
[4]; IgM <LLN, N = 167
  infection AE by outcome: Fatal: 0 n
[4]; IgM ≥LLN, N = 777
  infection AE by outcome: Fatal: 0 n
[5]
  cases of PML or Hepatitis B reactivation or serious potential OI: no cases
  incidence of malignancy: no increased incidence
  mean and median values of neutrophil count: remained within the normal ranges
  risk of neutropenia: No risk of neutropenia
[6]; after two years (96 weeks)
  increase of IgG levels: about 3%
[6]; in vivo
  effect on IgG levels on the long term: sustains and even increases IgG levels
[7]
  B-cell repletion: B cells for all subjects were repleted, with the exception of one subject
[8]
  half-life at steady state: approximately 16 days
[9]
  IgM levels with longer duration: levels remained above the lower limit of normal
[10]; ASCLEPIOS I and II, FIG. 7
  recovery of IgG levels after reduction until Week 36: recovered up to baseline levels by W72
[10]; Week 96
  change in mean serum IgG value from baseline: +0.249 g/L
[10]; Week 96 (Week-96 completers)
  patients with IgG levels 20% below the LLN: no ofatumumab patients
[10]; Week 96, ASCLEPIOS studies
  increase in mean serum IgG value from baseline: 2.2%
[10]; any time post-baseline, FIG. 8
  proportion of patients with IgG levels below the LLN versus teriflunomide: lower proportion
[10]; any time post-baseline, FIG. 9
  patients with IgG levels on or above the LLN: > 85%
[10]; anytime during post baseline visit
  proportion of patients with IgG below LLN: 14.2%
[10]; in vivo
  turning point at which the trend of decreasing IgG levels reverses: 36 week
[10]; over 96 weeks treatment
  mean serum IgG over time compared to baseline: no decrease in mean values; also recorded: No decrease in mean serum IgG
[10]; week 72 and thereafter
  decrease of IgG levels: no decrease
[11]; ASCLEPIOS I/II
  suppression of gadolinium (Gd) T1 lesions when compared to Aubagio: highly significant suppression
[11]; ASCLEPIOS I
  annualized relapse rate (ARR): 0.11
  reduction in annualized relapse rate (ARR) compared to Aubagio (teriflunomide): 50.5%
[11]; ASCLEPIOS II
  annualized relapse rate (ARR): 0.10
  reduction in annualized relapse rate (ARR) compared to Aubagio (teriflunomide): 58.5%
[11]; pre-specified pooled analyses
  relative risk reduction in 3-month confirmed disability progression (CDP) versus Aubagio: 34.4%
  relative risk reduction in 6-month CDP versus Aubagio: 32.5%
[12]
  Infections observed after the first drop of IgG<LLN: 45.5%
  Infections observed after the first drop of IgG<LLN, number of patients: 61
  Number of patients with at least 1 infection AE by Grade: Grade 4: 0 n
  infection AE by outcome: Recovered/resolved: 0 n
  infection AE by outcome: Recovered/resolved with sequelae: 0 n
  infection AE by outcome: Recovering/resolving: 0 n
  patients who received immunoglobulin substitution therapy for decrease in IgG/M: none of the patients
  patients who reported an infection post study drug discontinuation: six of 32
  serious opportunistic infections: no cases
[13]
  ADCC activity: No relevant difference
[14]
  IgG levels over long-term follow-up: stable over the long-term follow-up of >4 years
[15]
  patients with IgG below LLN, n/N: 134/944
[16]; Non-serious (n = 29)
  COVID-19 outcome: Ongoing: 0
  COVID-19 outcome: Recovered: 29
  COVID-19 outcome: Recovering: 0
[16]; Serious (n = 6)
  COVID-19 outcome: Recovered: 5
[16]; confirmed COVID-19 infection
  cases with no change in ofatumumab treatment required: 21 cases
[16]; human, in vivo
  cases with treatment temporarily interrupted due to confirmed COVID-19 infection: 5 cases
[16]; of 35 confirmed cases
  cases with complete recovery: 34 cases
  confirmed COVID-19 cases, Non-serious: Non-serious (n = 29)
[16]; Patient ID 5409018
  COVID-19 symptoms duration: ~50 days
  Outcome: Complete
[16]; Patient ID 5608014
  COVID-19 symptoms duration: 18 days
  Outcome: Complete
[16]; Patient ID 5800004
  COVID-19 symptoms duration: ~30 days
  Outcome: Fatal
[16]; Patient ID 5800043
  COVID-19 symptoms duration: 11 days
  Outcome: Complete
[16]; Patient ID 5801015
  COVID-19 symptoms duration: 15 days
  Outcome: Complete
[16]; Patient ID 5806001
  COVID-19 symptoms duration: 10 days
  Outcome: Complete
[17]
  cytopenia during therapy: No cytopenia
